Experimental data from article PMC8867384 (Neuron, 2020).

T1: Torpedo nicotinic acetylcholine receptor δ subunit (Tetronarce californica (formerly …, UniProt P02718 22-522, glycosylated (site not given)))
T1 sequence (looked up): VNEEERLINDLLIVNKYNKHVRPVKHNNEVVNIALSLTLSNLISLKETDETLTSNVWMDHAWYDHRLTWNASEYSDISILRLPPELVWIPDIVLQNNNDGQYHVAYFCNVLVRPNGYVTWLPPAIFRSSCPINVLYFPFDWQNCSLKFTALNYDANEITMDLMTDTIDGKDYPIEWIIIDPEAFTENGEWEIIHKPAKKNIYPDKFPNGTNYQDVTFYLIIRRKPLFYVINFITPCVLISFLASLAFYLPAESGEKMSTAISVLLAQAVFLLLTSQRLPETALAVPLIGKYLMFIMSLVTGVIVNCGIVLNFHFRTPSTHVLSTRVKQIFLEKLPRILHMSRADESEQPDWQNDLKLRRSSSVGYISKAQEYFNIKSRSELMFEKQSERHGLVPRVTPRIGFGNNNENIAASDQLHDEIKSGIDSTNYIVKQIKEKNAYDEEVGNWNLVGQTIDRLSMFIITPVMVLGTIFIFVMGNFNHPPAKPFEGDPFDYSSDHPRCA

T2: Torpedo nicotinic acetylcholine receptor γ subunit (Tetronarce californica (formerly …, UniProt P02714 18-506))
T2 sequence (looked up): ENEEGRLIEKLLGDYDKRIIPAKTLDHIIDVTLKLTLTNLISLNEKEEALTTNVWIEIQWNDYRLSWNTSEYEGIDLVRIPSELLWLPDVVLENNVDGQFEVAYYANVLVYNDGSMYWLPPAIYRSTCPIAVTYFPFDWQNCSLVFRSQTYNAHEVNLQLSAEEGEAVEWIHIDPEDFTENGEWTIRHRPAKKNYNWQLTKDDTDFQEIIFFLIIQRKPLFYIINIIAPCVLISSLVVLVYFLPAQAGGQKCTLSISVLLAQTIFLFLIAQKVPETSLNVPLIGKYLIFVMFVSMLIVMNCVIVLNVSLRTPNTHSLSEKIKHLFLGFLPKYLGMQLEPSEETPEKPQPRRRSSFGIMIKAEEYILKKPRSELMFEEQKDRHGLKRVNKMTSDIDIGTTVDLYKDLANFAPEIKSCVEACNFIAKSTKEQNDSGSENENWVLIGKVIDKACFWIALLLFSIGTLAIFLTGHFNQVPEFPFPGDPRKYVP


Columns and labels:
Assay in all cases: cryo-EM structure
[1] = molecular target: native Torpedo nicotinic acetylcholine receptor (Tetronarce californica (formerly Torpedo californica)) (UniProt P02710)
[2] = molecular target: Torpedo nicotinic acetylcholine receptor α subunit (Tetronarce californica (formerly …, UniProt P02710 25-461))
[3] = molecular target: T1, Torpedo nicotinic acetylcholine …
[4] = molecular target: T2, Torpedo nicotinic acetylcholine …

native Torpedo nicotinic acetylcholine receptor (Tetronarce californica (formerly Torpedo californica)), sequence (P02710 25-461, chain 1 of 2): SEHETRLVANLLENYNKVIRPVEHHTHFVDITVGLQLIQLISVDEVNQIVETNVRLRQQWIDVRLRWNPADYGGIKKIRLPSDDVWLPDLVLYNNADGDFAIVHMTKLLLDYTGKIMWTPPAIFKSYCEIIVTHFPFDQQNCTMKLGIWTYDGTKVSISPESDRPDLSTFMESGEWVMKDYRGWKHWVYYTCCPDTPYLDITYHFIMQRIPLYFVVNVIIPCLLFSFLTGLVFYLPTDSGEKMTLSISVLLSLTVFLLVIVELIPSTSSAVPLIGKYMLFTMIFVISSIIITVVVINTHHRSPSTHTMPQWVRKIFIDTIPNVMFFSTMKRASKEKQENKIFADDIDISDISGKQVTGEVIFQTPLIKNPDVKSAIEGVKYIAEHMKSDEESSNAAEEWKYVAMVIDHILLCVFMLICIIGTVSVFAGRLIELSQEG
native Torpedo nicotinic acetylcholine receptor (Tetronarce californica (formerly Torpedo californica)), sequence (P02712 25-493, chain 2 of 2, further chain): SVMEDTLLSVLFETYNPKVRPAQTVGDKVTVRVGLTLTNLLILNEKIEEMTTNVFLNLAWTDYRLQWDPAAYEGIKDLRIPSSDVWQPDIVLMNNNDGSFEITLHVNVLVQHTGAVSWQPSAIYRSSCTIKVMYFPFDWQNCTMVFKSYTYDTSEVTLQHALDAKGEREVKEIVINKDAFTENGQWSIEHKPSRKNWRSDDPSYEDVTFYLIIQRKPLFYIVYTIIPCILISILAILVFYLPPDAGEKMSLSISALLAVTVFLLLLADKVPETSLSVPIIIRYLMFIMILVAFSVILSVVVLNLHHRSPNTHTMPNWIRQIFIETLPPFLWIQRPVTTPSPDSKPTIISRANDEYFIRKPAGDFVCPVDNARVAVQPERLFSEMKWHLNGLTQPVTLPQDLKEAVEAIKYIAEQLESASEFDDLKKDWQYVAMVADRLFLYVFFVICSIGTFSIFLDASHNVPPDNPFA
Torpedo nicotinic acetylcholine receptor α subunit (Tetronarce californica, sequence (P02710 25-461): as the sequence (P02710 25-461, chain 1 of 2) above

Molecule	stoichiometry N [1]	binding result [2]	binding result [3]	binding result [4]
α-bungarotoxin (from UniProt P60615 22-95) (natural protein)	2			
α-bungarotoxin (natural protein) IVCHTTATSPISAVTCPPGENLCYRKMWCDAFCSSRGKVVELGCAATCPSKKPYEEVTCCSTDKCNPHPKQRPG		binds	binds	binds
